In the assay the target is Full-length wt Lst7 (K. lactis) with C-terminal Strep tag (Kluyveromyces lactis). Briefly: AUC + SEC-MALS; purified K. lactis Lst7/Lst4 complex; AUC sedimentation velocity with interference data at 0.15 mg/ml, SEDFIT; SEC-MALS of 50 µg in 50 µl on TSKgel SuperSW2000 in PBS, 0.35 ml/min.

B1: Engineered Lst4 (K. lactis) aa58-714 with a deletion of the intra-DENN loop (aa 388-534) (domain or fragment)
chain: NDRLHNGGFRLIISQELGHVTSRNNYQVVLDHSSVNFHTGAHIPLNELKDYIFGSSIRTIDYSASSDKIKVVKSANIVLFTRIFYLNEKSTLRIAISCCVTDDVLPVLTECWPHISSFLDQCENTLLKYLAKNDTQFLPHDWKARNCIEVAAVLQTFQRKIIPLLSGYSDTPRLFLYPMDSIPYIKTWVKYVTNWIELKDGPRVRFLPILLAKLRYDFASLLKENSNTRIVILTGNMNVANRLIFILTAFLGPHFRGTLHKSINSQGCPSPAGRKMSNMSGASDFPFELKPSNSSITETNKGWEIPRIKRDPTFSVTSVSSDETGVQTFILNDAFADLVIDPPSYDTTVSNEKHGEIVEVNMASPRKQRNNQNQELLRRFTSYTPHYNQWFQLQACQITTESENKVIHSMKRDLTYADQDPCKKDKSTSTLLISLRSREIKQVTIVRDTNNRFIQRTKKILQNGKVGPVSRAMLSGIETTDQHLKKLMECNNDNEALVSLFNDIVTCAST
In the case of B1, the stoichiometry N – broadly, a count of units in the complex or per binding partner – was found to be 1.

The values are drawn from paper PMC4703059.
